Measured values as given in paper PMC4284738, “14-3-3 Proteins Participate in Light Signaling through Association with PHYTOCHROME INTERACTING FACTORs” (International Journal of Molecular Sciences, 2014).

Experiments:
Assay in all cases: pull-down; 0.3–20 µg of His-14-3-3κ incubated with MBP or MBP-PIFs in MBP column buffer at 4 °C in dark for 5–6 h, then amylose resin overnight; elution with 10 mM maltose; blot with anti-His and anti-MBP
Details in all cases: both partners purified
[1] = biological target: T1, maltose-binding protein (MBP)-tagged PIF3 (Arabidopsis thaliana, UniProt O80536 1-524)
T1 construct: Transcription factor PIF3, Arabidopsis thaliana, AGI AT1G09530; also called MBP-PIF3; source: E. coli BL21 (DE3), purified (amylose resin)
T1 sequence (looked up): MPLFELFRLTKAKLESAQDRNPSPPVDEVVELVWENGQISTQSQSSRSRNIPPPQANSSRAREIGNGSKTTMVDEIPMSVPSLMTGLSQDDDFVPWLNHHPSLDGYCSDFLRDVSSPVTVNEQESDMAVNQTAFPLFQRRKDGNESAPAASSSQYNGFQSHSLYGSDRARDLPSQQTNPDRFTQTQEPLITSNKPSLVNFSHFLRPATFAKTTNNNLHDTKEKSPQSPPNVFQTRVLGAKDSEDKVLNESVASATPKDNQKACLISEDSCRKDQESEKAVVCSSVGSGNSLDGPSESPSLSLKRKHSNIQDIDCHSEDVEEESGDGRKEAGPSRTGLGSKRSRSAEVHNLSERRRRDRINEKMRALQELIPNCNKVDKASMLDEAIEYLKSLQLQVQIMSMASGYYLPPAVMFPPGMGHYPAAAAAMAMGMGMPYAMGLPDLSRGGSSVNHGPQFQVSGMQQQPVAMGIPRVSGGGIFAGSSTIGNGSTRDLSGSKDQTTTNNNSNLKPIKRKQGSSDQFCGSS

[2] = biological target: T2, MBP-PIF3ala1+2 (PIF3 S23A S115A S116A) (Arabidopsis thaliana, UniProt O80536 1-524, S23A | S115A | S116A)
T2 construct: Transcription factor PIF3, Arabidopsis thaliana, AGI AT1G09530; ala1: Ser-23 to Ala; ala2: Ser-115 and Ser-116 to Ala; The cloning of the mutant into pMAL is not described on its own; source: E. coli BL21 (DE3), purified (amylose resin)
T2 sequence (looked up): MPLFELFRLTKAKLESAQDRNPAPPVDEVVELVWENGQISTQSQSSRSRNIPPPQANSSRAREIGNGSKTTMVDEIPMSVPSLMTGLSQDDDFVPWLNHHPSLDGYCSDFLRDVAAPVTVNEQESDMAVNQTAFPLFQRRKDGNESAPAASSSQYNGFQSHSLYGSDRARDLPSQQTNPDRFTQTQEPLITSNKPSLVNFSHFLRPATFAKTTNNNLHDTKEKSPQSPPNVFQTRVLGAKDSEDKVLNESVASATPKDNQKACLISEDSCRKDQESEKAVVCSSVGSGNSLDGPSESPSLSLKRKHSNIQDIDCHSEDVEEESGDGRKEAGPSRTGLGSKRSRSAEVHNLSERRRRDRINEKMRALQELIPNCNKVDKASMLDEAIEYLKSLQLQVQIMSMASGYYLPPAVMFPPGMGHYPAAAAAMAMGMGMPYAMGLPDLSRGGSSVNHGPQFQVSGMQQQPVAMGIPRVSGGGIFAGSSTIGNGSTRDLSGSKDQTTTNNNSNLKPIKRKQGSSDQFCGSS

MBP-PIF1 = biological target: T3, MBP-PIF1 (Arabidopsis thaliana, UniProt Q8GZM7 1-478)
T3 construct: Transcription factor PIF1, Arabidopsis thaliana; source: E. coli BL21 (DE3), purified (amylose resin)
T3 sequence (looked up): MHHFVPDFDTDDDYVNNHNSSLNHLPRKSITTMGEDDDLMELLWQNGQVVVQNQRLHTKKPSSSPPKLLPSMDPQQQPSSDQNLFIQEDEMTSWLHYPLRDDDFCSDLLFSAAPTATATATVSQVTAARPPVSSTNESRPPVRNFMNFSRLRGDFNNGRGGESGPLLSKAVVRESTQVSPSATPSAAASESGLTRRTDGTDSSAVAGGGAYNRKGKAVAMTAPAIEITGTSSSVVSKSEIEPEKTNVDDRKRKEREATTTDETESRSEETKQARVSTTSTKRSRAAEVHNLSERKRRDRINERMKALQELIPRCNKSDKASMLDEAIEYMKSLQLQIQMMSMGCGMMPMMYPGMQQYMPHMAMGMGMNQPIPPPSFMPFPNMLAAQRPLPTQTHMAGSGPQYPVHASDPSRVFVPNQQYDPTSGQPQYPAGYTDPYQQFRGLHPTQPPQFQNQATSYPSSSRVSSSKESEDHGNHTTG

- binding result [1]: binds
- binding result [2]: binds
- binding result (MBP-PIF1): binds
B1: His-tagged 14-3-3κ (natural protein, Arabidopsis thaliana, UniProt P48348 1-248, looked up)
chain: MATTLSRDQYVYMAKLAEQAERYEEMVQFMEQLVSGATPAGELTVEERNLLSVAYKNVIGSLRAAWRIVSSIEQKEESRKNEEHVSLVKDYRSKVETELSSICSGILRLLDSHLIPSATASESKVFYLKMKGDYHRYLAEFKSGDERKTAAEDTMIAYKAAQDVAVADLAPTHPIRLGLALNFSVFYYEILNSSEKACSMAKQAFEEAIAELDTLGEESYKDSTLIMQLLRDNLTLWTSDMQEQMDEA
notes: 14-3-3 kappa isoform, Arabidopsis thaliana; also called HIS-14-3-3κ; His-14-3-3κ
